According to US20230265151A1, “GIP/GLP1 CO-AGONIST COMPOUNDS” (priority 2020, published 2023):

B1: Y-Aib-EGT-αMeF(2F)-TSD-4Pal-SI-αMeL-LD-Orn-K((2-[2-(2-Amino-ethoxy)-ethoxy]-acetyl)2-(γ-Glu)-CO-(CH2)12-CO2H)AQ-Aib-EFI-(D-Glu)-αMeY-LIEGGP S SGAPPP … (peptide)
peptide: YXEGTXTSDXSIXLDXKAQXEFIXXLIEGGPSSGAPPPSK
modifications: Aib2, αMeF(2F)6, 4Pal10, αMeL13, Orn16, Aib20, D-Glu24, αMeY25; acylated K17, K40 (groups as in name); C-terminal amide
B2: Y-Aib-EGT-αMeF(2F)-TSD-4Pal-SI-αMeL-LD-Orn-K((2-[2-(2-Amino-ethoxy)-ethoxy]-acetyl)2-(γ-Glu)-CO-(CH2)14-CH3)AQ-Aib-EFI-(D-Glu)-αMeY-LIEGGPSSGAPPPSK((2-[2-(2-Ami … (peptide)
peptide: YXEGTXTSDXSIXLDXKAQXEFIXXLIEGGPSSGAPPPSK
modifications: Aib2, αMeF(2F)6, 4Pal10, αMeL13, Orn16, Aib20, D-Glu24, αMeY25; acylated K17, K40 (groups as in name); C-terminal amide
B3: Y-Aib-EGT-αMeF(2F)-TSD-4Pal-SI-αMeL-LD-Orn-K((2-[2-(2-Amino-ethoxy)-ethoxy]-acetyl)2-(γ-Glu)-CO-(CH2)12-CO2H)AQ-Aib-EFI-(D-Glu)-αMeY-LIEGGK((2-[2-(2-Amino-ethox … (peptide)
peptide: YXEGTXTSDXSIXLDXKAQXEFIXXLIEGGKSSGAPPPS
modifications: Aib2, αMeF(2F)6, 4Pal10, αMeL13, Orn16, Aib20, D-Glu24, αMeY25; acylated K17, K31 (groups as in name); C-terminal amide
B4: Y-Aib-EGT-αMeF(2F)-TSD-4Pal-SI-αMeL-LD-Orn-K((2-[2-(2-Amino-ethoxy)-ethoxy]-acetyl)3-(γ-Glu)-CO-(CH2)12-CO2H)AQ-Aib-EFI-(D-Glu)-αMeY-LIEGGK((2-[2-(2-Amino-ethox … (peptide)
peptide: YXEGTXTSDXSIXLDXKAQXEFIXXLIEGGKSSGAPPPS
modifications: Aib2, αMeF(2F)6, 4Pal10, αMeL13, Orn16, Aib20, D-Glu24, αMeY25; acylated K17, K31 (groups as in name); C-terminal amide
B5: Y-Aib-EGT-αMeF(2F)-TSD-4Pal-SI-αMeL-LD-Orn-K((2-[2-(2-Amino-ethoxy)-ethoxy]-acetyl)2-(γ-Glu)-CO-(CH2)10-CH3)AQ-Aib-EFI-(D-Glu)-αMeY-LIEGGK((2-[2-(2-Amino-ethoxy … (peptide)
peptide: YXEGTXTSDXSIXLDXKAQXEFIXXLIEGGKSSGAPPPS
modifications: Aib2, αMeF(2F)6, 4Pal10, αMeL13, Orn16, Aib20, D-Glu24, αMeY25; acylated K17, K31 (groups as in name); C-terminal amide
B6: Y-Aib-EGT-αMeF(2F)-TSD-4Pal-SI-αMeL-LD-Orn-K((2-[2-(2-Amino-ethoxy)-ethoxy]-acetyl)2-(γ-Glu)-CO-(CH2)12-CO2H)AQ-Aib-K((2-[2-(2-Amino-ethoxy)-ethoxy]-acetyl)2-(γ … (peptide)
peptide: YXEGTXTSDXSIXLDXKAQXKFIXXLIEGGPSSGAPPPS
modifications: Aib2, αMeF(2F)6, 4Pal10, αMeL13, Orn16, Aib20, D-Glu24, αMeY25; acylated K17, K21 (groups as in name); C-terminal amide
B7: Y-Aib-EGT-αMeF(2F)-TSD-4Pal-SI-αMeL-LD-Orn-K((2-[2-(2-Amino-ethoxy)-ethoxy]-acetyl)-(γ-Glu)-(10-(4-carboxyphenoxy)decanoyl))AQ-Aib-EFI-(D-Glu)-αMeY-LIEGGK((2-[2 … (peptide)
peptide: YXEGTXTSDXSIXLDXKAQXEFIXXLIEGGKSSGAPPPS
modifications: Aib2, αMeF(2F)6, 4Pal10, αMeL13, Orn16, Aib20, D-Glu24, αMeY25; acylated K17, K31 (groups as in name); C-terminal amide
B8: Y-Aib-EGT-αMeF(2F)-TSDK((2-[2-(2-Amino-ethoxy)-ethoxy]-acetyl)2-(γ-Glu)-CO-(CH2)12-CO2H)SI-αMeL-LD-Orn-K((2-[2-(2-Amino-ethoxy)-ethoxy]-acetyl)2-(γ-Glu)-CO-(CH2 … (peptide)
peptide: YXEGTXTSDKSIXLDXKAQXEFIXXLIEGGPSSGAPPPS
modifications: Aib2, αMeF(2F)6, αMeL13, Orn16, Aib20, D-Glu24, αMeY25; acylated K10, K17 (groups as in name); C-terminal amide
B9: Y-Aib-EGT-αMeF(2F)-TSD-4Pal-SI-αMeL-LD-Orn-K((εK)-(γ-Glu)-(γ-Glu)-CO-(CH2)12-CO2H)AQ-Aib-EFI-(D-Glu)-αMeY-LIEGGK((εK)-(γ-Glu)-(γ-Glu)-CO-(CH2)12-CO2H)SSGAPPPS-N … (peptide)
peptide: YXEGTXTSDXSIXLDXKAQXEFIXXLIEGGKSSGAPPPS
modifications: Aib2, αMeF(2F)6, 4Pal10, αMeL13, Orn16, Aib20, D-Glu24, αMeY25; acylated K17, K31 (groups as in name); C-terminal amide
B10: Y-Aib-EGT-αMeF(2F)-TSD-4Pal-SI-αMeL-LD-Orn-K((2-[2-(2-Amino-ethoxy)-ethoxy]-acetyl)-(γ-Glu)-CO-(CH2)12-CO2H)AQ-Aib-EFI-(D-Glu)-αMeY-LIEGGK((2-[2-(2-Amino-ethoxy … (peptide)
peptide: YXEGTXTSDXSIXLDXKAQXEFIXXLIEGGKSSGAPPPS
modifications: Aib2, αMeF(2F)6, 4Pal10, αMeL13, Orn16, Aib20, D-Glu24, αMeY25; acylated K17, K31 (groups as in name); C-terminal amide
B11: Y-Aib-EGT-αMeF(2F)-TSD-4Pal-SI-αMeL-LD-Orn-K((εK)-(2-[2-(2-Amino-ethoxy)-ethoxy]-acetyl)-(γ-Glu)-CO-(CH2)12-CO2H)AQ-Aib-EFI-(D-Glu)-αMeY-LIEGGK((εK)-(2-[2-(2-Am … (peptide)
peptide: YXEGTXTSDXSIXLDXKAQXEFIXXLIEGGKSSGAPPPS
modifications: Aib2, αMeF(2F)6, 4Pal10, αMeL13, Orn16, Aib20, D-Glu24, αMeY25; acylated K17, K31 (groups as in name); C-terminal amide
B12: Y-Aib-EGT-αMeF(2F)-TSD-4Pal-SI-αMeL-LD-Orn-K((2-[2-(2-Amino-ethoxy)-ethoxy]-acetyl)-(γ-Glu)-CO-(CH2)10-CH3)AQ-Aib-EFI-(D-Glu)-αMeY-LIEGGK((2-[2-(2-Amino-ethoxy) … (peptide)
peptide: YXEGTXTSDXSIXLDXKAQXEFIXXLIEGGKSSGAPPPS
modifications: Aib2, αMeF(2F)6, 4Pal10, αMeL13, Orn16, Aib20, D-Glu24, αMeY25; acylated K17, K31 (groups as in name); C-terminal amide
B13: Y-Aib-EGT-αMeF(2F)-TSD-4Pal-SI-αMeL-LD-Orn-K((2-[2-(2-Amino-ethoxy)-ethoxy]-acetyl)2-(γ-Glu)-CO-(CH2)12-CO2H)AQ-Aib-EFIK((2-[2-(2-Amino-ethoxy)-ethoxy]-acetyl)2 … (peptide)
peptide: YXEGTXTSDXSIXLDXKAQXEFIKXLIEGGPSSGAPPPS
modifications: Aib2, αMeF(2F)6, 4Pal10, αMeL13, Orn16, Aib20, αMeY25; acylated K17, K24 (groups as in name); C-terminal amide
B14: Y-Aib-EGT-αMeF(2F)-TSD-4Pal-SI-αMeL-LD-Orn-K((2-[2-(2-Amino-ethoxy)-ethoxy]-acetyl)2-(εK)-CO-(CH2)12-CO2H)AQ-Aib-EFI-(D-Glu)-αMeY-LIEGGK((2-[2-(2-Amino-ethoxy)- … (peptide)
peptide: YXEGTXTSDXSIXLDXKAQXEFIXXLIEGGKSSGAPPPS
modifications: Aib2, αMeF(2F)6, 4Pal10, αMeL13, Orn16, Aib20, D-Glu24, αMeY25; acylated K17, K31 (groups as in name); C-terminal amide
B15: Y-Aib-EGT-αMeF(2F)-TSD-4Pal-SI-αMeL-LD-Orn-K((2-[2-(2-Amino-ethoxy)-ethoxy]-acetyl)2-(γ-Glu)-(4-(4-iodophenyl)butanoyl))AQ-Aib-EFI-(D-Glu)-αMeY-LIEGGK((2-[2-(2- … (peptide)
peptide: YXEGTXTSDXSIXLDXKAQXEFIXXLIEGGKSSGAPPPS
modifications: Aib2, αMeF(2F)6, 4Pal10, αMeL13, Orn16, Aib20, D-Glu24, αMeY25; acylated K17, K31 (groups as in name); C-terminal amide
B16: Y-Aib-EGT-αMeF(2F)-TSD-4Pal-SI-αMeL-LD-Orn-K((2-[2-(2-Amino-ethoxy)-ethoxy]-acetyl)-(εK)-(γ-Glu)-CO-(CH2)12-CO2H)AQ-Aib-EFI-(D-Glu)-αMeY-LIEGGK((2-[2-(2-Amino-e … (peptide)
peptide: YXEGTXTSDXSIXLDXKAQXEFIXXLIEGGKSSGAPPPS
modifications: Aib2, αMeF(2F)6, 4Pal10, αMeL13, Orn16, Aib20, D-Glu24, αMeY25; acylated K17, K31 (groups as in name); C-terminal amide
B17: Y-Aib-EGT-αMeF(2F)-TSD-4Pal-SI-αMeL-LD-Orn-K((2-[2-(2-Amino-ethoxy)-ethoxy]-acetyl)-(γ-Glu)-CO-(CH2)14-CH3)AQ-Aib-EFI-(D-Glu)-αMeY-LIEGGK((2-[2-(2-Amino-ethoxy) … (peptide)
peptide: YXEGTXTSDXSIXLDXKAQXEFIXXLIEGGKSSGAPPPS
modifications: Aib2, αMeF(2F)6, 4Pal10, αMeL13, Orn16, Aib20, D-Glu24, αMeY25; acylated K17, K31 (groups as in name); C-terminal amide

These binders were tested against human glucagon receptor (human, UniProt P47871 26-477) (assay: cell-based or functional assay).
With B1 the “cAMP EC50 (1.0% HSA)” value was greater than 9.95 µM.
In the case of B2, the “cAMP EC50 (1.0% HSA)” value is reported as greater than 9.95 µM.
B3 was tested, and the “cAMP EC50 (1.0% HSA)” value was greater than 9.95 µM.
For B4, the “cAMP EC50 (1.0% HSA)” value was greater than 9.95 µM.
B5 was tested, and the “cAMP EC50 (1.0% HSA)” value was greater than 9.95 µM.
For B6, the “cAMP EC50 (1.0% HSA)” value was greater than 9.95 µM.
In the case of B7, the “cAMP EC50 (1.0% HSA)” value is reported as greater than 9.95 µM.
B8 was tested, and the “cAMP EC50 (1.0% HSA)” value was greater than 9.95 µM.
For B9, the “cAMP EC50 (1.0% HSA)” value was greater than 9.95 µM.
In the case of B10, the “cAMP EC50 (1.0% HSA)” value is reported as greater than 9.95 µM.
In the case of B11, the “cAMP EC50 (1.0% HSA)” value is reported as greater than 9.95 µM.
With B12 the “cAMP EC50 (1.0% HSA)” value was greater than 9.95 µM.
In the case of B13, the “cAMP EC50 (1.0% HSA)” value is reported as greater than 9.95 µM.
For B14, the “cAMP EC50 (1.0% HSA)” value was greater than 9.95 µM.
In the case of B15, the “cAMP EC50 (1.0% HSA)” value is reported as greater than 9.95 µM.
B16 was tested, and the “cAMP EC50 (1.0% HSA)” value was greater than 9.95 µM.
With B17 the “cAMP EC50 (1.0% HSA)” value was greater than 9.95 µM.
